The values that follow come from article PMC8410870, “Reconstitution defines the roles of p62, NBR1 and TAX1BP1 in ubiquitin condensate formation and autophagy initiation” (Nature Communications, 2021).

To fix the notation:
B1: 6xHis-Strep-TEV-GFP-NBR1 (natural protein, human, UniProt Q14596 1-966, looked up)
chain: MEPQVTLNVTFKNEIQSFLVSDPENTTWADIEAMVKVSFDLNTIQIKYLDEENEEVSINSQGEYEEALKMAVKQGNQLQMQVHEGHHVVDEAPPPVVGAKRLAARAGKKPLAHYSSLVRVLGSDMKTPEDPAVQSFPLVPCDTDQPQDKPPDWFTSYLETFREQVVNETVEKLEQKLHEKLVLQNPSLGSCPSEVSMPTSEETLFLPENQFSWHIACNNCQRRIVGVRYQCSLCPSYNICEDCEAGPYGHDTNHVLLKLRRPVVGSSEPFCHSKYSTPRLPAALEQVRLQKQVDKNFLKAEKQRLRAEKKQRKAEVKELKKQLKLHRKIHLWNSIHGLQSPKSPLGRPESLLQSNTLMLPLQPCTSVMPMLSAAFVDENLPDGTHLQPGTKFIKHWRMKNTGNVKWSADTKLKFMWGNLTLASTEKKDVLVPCLKAGHVGVVSVEFIAPALEGTYTSHWRLSHKGQQFGPRVWCSIIVDPFPSEESPDNIEKGMISSSKTDDLTCQQEETFLLAKEERQLGEVTEQTEGTAACIPQKAKNVASERELYIPSVDLLTAQDLLSFELLDINIVQELERVPHNTPVDVTPCMSPLPHDSPLIEKPGLGQIEEENEGAGFKALPDSMVSVKRKAENIASVEEAEEDLSGTQFVCETVIRSLTLDAAPDHNPPCRQKSLQMTFALPEGPLGNEKEEIIHIAEEEAVMEEEEDEEDEEEEDELKDEVQSQSSASSEDYIIILPECFDTSRPLGDSMYSSALSQPGLERGAEGKPGVEAGQEPAEAGERLPGGENQPQEHSISDILTTSQTLETVPLIPEVVELPPSLPRSSPCVHHHGSPGVDLPVTIPEVSSVPDQIRGEPRGSSGLVNSRQKSYDHSRHHHGSSIAGGLVKGALSVAASAYKALFAGPPVTAQPIISEDQTAALMAHLFEMGFCDRQLNLRLLKKHNYNILQVVTELLQLNNNDWYSQRY
notes: NBR1, human, ORF amplified from HeLa cells cDNA; called full-length NBR1 in the results; Tag ends are read from the construct's name; a TEV site lies between Strep and GFP, cleavage is not mentioned; also called GFP-NBR1 WT; full-length NBR1; source: Sf9, purified (HisTrap, SEC on Superose 6); not shown: GFP, N-terminal, kept

What all share (assay): pull-down; microscopy-based protein-protein interaction assay: GST-tagged bait saturated on Glutathione Sepharose 4B beads, fluorescent prey at 2 µM, 25 mM HEPES pH 7.5, 150 mM NaCl, 1 mM DTT, 30 min-1 h at room temperature, beads imaged at the equilibrium by confocal microscopy
Holding throughout (details): both partners purified

For one assay, the target named is T1, GST-FIP200 (UniProt Q8TDY2 1-1594).
T1 construct: FIP200, insect codon-optimized gene purchased from GenScript; The tag's end is read from the construct's name; In the functional rows on condensates the protein added was FIP200-GFP (GST cleaved off GST-FIP200-GFP with 3C protease); source: Sf9, purified (Glutathione Sepharose 4B, SEC on Superose 6 Increase); not shown: GST, N-terminal, kept

For assay [1], the target named is T2, GST fused to four M1-linked ubiquitin moieties (GST-4xUb) (UniProt P0CG48 1-76; P0CG48 1-76; P0CG48 1-76; P0CG48 1-76).
T2 construct: ubiquitin, first of four M1-linked (head-to-tail) moieties; ubiquitin, second of four M1-linked (head-to-tail) moieties; ubiquitin, third of four M1-linked (head-to-tail) moieties; ubiquitin, fourth of four M1-linked (head-to-tail) moieties; The tag's end is read from the construct's name; not shown: GST, N-terminal, kept
T2 sequence (P0CG48 1-304, one chain of several): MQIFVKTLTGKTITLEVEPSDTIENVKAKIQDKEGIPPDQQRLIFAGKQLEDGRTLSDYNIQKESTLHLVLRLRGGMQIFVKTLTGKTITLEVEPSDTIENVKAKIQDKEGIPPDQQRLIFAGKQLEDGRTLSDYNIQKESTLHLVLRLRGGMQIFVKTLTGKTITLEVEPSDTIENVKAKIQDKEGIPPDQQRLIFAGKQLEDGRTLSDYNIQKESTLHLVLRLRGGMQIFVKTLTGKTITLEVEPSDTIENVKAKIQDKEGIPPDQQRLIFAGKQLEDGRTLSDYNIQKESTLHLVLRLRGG

The assay “6xHis-Strep-TEV-GFP-NBR1” deals with B1.

Take B1: the binding result (with GST-FIP200; in assay [1]) was “binds” throughout.

B2: GST-FIP200 Claw (aa 1494-1594) (domain or fragment, UniProt Q8TDY2 1494-1594, looked up)
chain: EKIAIRDFQVGDLVLIILDERHDNYVLFTVSPTLYFLHSESLPALDLKPGEGASGASRRPWVLGKVMEKEYCQAKKAQNRFKVPLGTKFYRVKAVSWNKKV
notes: FIP200 Claw domain, aa 1494-1594; The tag's end is read from the construct's name; also called Claw domain of FIP200; source: expressed and purified as the GST-FIP200 CTR construct (previously described); not shown: GST, N-terminal, kept
Take B2: the binding result in the assay with 6xHis-Strep-TEV-GFP-NBR1 is “binds”.
